Patent US20080226722A1, “Gel Composition Comprising Charged Polymers” (priority 2004, published 2008)

How the values were obtained:
[1] = Protein release from gels comprising anionically and cationically charged microparticles (release buffer, 37° C., BCA Protein Assay); type: physicochemical; details: for time to reach a release of 50% of protein: HEPES pH 7 isotonised with NaCl, 37° C.
Description: To each of the gels prepared according to example 5, 1.5 mL release buffer (HEPES, pH 7, 100 mM, isotonised with NaCl) was added. Subsequently, the cups were incubated at 37° C. Samples of 1.0 mL were taken at various intervals and replaced by 1.0 mL fresh buffer. The protein concentration in the samples was measured […] using the BCA Protein Assay.
Gels loaded with IgG were prepared in analogy to example 5 and tested in analogy to example 6, except that IgG was used as a model protein instead of lysozyme and BSA.

[2] = Incorporation of protein into charged microparticles; type: physicochemical; details: neutral or physiological pH

Row | Substance | protein released ([1]; after about 60 days, gels prepared in analogy to example 5) | release rate compared with the other model proteins ([1]; gels of oppositely charged microparticles) | time to reach a release of 50% of protein ([1]; 12.5%-gel (solid content about 12.5%)) | time to reach a release of 50% of protein ([1]; 25.5%-gel (so in the source)) | incorporation into negatively charged microparticles [2] | incorporation into positively charged microparticles [2]
1 | IgG | approx. 50% | substantially slower |  |  |  | 
2 | lysozyme |  |  | about 20 h | about 85 h | easily incorporated | not very efficiently incorporated
